From patent US6623738 (University of California, dated 2003)
Values belong to the binder of their own block, whether it stands above or below them.

Assays:
[1] = target: T1, neuropilin-1 transiently expressed in COS-7 cells (Rattus norvegicus (Rat), UniProt Q9QWJ9 22-922); assay: equilibrium binding of AP fusion to transfected COS cells, Hill fit
T1 construct: also called npn-1; SR1
Protocol: (§1) FIGS. 5A–5C. Equilibrium binding of semaphorin-AP fusion proteins to neuropilin-expressing cells. Transfected or control COS cells were incubated with concentrated media containing the indicated concentrations of semaphorin-AP fusion proteins. AP activity derived from bound fusion proteins was measured […] at 405 nm; specific binding was obtained after subtraction of background from control cells. Specific binding curves to cells expressing neuropilin-1 (closed circles) or […] are shown for Sema III-AP (A), Sema E-AP (B), and Sema IV-AP (C). Dissociation constants for interaction with neuropilin-2-expressing cells were 0.29 for Sema E-AP and 0.09 nM for Sema IV-AP.
(§2) We estimated the binding affinity of the AP fusions of Sema III, Sema E and Sema IV to cells expressing neuropilin-1 or neuropilin-2 in equilibrium binding experiments. For these experiments, we used the a5 isoform of neuropilin-2. […] Those for Sema IV binding to neuropilin-1 and neuropilin-2 were 30 nM and 5 nM, respectively. […] Similar Kd values were obtained using the b5 isoform of neuropilin-2 and the degree of binding of different semaphorins to cells all isoforms tested appeared similar.

[2] = target: T2, mouse neuropilin-2(a5), myc-tagged, expressed in COS-7 cells (mouse, UniProt O35375 21-931); assay: equilibrium binding of AP fusion to transfected COS cells (a5 isoform), Hill fit
T2 construct: also called a5 isoform of neuropilin-2; SR2(a)5
T2 sequence: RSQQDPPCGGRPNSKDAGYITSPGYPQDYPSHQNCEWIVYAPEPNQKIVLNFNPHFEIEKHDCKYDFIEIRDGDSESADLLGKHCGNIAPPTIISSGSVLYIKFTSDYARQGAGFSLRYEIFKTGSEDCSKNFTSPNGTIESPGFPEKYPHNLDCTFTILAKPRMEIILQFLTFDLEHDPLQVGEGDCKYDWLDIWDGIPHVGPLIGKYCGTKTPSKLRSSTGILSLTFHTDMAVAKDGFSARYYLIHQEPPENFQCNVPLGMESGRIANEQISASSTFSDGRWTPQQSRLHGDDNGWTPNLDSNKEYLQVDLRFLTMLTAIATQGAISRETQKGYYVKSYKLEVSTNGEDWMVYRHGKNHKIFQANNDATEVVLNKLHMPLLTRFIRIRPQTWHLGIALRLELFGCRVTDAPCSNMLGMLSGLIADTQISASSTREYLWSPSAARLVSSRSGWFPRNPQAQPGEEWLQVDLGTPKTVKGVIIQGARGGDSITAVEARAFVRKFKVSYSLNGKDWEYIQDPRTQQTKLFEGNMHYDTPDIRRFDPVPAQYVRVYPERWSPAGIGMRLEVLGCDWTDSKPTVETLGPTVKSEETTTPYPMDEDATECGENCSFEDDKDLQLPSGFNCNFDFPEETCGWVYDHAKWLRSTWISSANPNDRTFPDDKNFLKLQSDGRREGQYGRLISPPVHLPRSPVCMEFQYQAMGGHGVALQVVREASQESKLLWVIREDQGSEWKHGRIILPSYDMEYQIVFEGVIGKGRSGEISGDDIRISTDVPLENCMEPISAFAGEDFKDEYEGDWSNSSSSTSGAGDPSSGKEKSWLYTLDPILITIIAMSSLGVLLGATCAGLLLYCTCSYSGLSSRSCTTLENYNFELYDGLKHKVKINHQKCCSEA
Protocol: as §1, §2

[3] = target: T2, mouse neuropilin-2(a5), myc-tagged, …; assay: equilibrium binding of AP fusion to neuropilin-2-expressing COS cells (figure legend)
Protocol: as §1, §2

[4] = target: T3, mouse neuropilin-2(a0), myc-tagged, expressed in COS-7 cells (mouse, UniProt O35375 21-931); assay: AP fusion binding to transfected COS cells
T3 construct: also called SR2(a)0; m-npn-2
T3 sequence: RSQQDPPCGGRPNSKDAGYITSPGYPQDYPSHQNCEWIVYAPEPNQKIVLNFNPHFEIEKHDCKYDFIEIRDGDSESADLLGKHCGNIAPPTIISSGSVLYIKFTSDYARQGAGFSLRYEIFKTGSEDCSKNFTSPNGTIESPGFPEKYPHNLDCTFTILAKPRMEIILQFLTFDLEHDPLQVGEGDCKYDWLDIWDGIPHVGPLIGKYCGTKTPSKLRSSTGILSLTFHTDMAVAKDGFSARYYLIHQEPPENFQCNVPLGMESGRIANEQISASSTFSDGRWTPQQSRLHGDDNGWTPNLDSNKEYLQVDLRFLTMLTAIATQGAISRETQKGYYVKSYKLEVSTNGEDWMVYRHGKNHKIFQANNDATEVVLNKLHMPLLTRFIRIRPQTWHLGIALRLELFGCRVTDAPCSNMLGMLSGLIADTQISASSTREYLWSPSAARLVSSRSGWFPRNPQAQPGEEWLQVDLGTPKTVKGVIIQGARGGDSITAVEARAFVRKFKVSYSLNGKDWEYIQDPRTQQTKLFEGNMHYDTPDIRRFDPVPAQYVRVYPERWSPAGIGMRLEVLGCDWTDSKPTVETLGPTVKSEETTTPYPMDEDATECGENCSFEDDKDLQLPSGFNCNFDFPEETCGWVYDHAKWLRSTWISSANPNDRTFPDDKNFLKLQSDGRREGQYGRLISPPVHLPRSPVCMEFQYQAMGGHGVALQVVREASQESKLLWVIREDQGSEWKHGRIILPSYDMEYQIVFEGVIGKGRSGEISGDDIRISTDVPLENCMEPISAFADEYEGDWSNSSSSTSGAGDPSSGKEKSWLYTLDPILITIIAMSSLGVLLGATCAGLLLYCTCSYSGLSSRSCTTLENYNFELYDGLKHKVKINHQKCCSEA

[5] = target: T2, mouse neuropilin-2(a5), myc-tagged, …; assay: AP fusion binding to transfected COS cells
[6] = target: T4, mouse neuropilin-2(a22), myc-tagged, expressed in COS-7 cells (mouse, UniProt O35375 21-931); assay: AP fusion binding to transfected COS cells
T4 construct: also called SR2(a)22
T4 sequence: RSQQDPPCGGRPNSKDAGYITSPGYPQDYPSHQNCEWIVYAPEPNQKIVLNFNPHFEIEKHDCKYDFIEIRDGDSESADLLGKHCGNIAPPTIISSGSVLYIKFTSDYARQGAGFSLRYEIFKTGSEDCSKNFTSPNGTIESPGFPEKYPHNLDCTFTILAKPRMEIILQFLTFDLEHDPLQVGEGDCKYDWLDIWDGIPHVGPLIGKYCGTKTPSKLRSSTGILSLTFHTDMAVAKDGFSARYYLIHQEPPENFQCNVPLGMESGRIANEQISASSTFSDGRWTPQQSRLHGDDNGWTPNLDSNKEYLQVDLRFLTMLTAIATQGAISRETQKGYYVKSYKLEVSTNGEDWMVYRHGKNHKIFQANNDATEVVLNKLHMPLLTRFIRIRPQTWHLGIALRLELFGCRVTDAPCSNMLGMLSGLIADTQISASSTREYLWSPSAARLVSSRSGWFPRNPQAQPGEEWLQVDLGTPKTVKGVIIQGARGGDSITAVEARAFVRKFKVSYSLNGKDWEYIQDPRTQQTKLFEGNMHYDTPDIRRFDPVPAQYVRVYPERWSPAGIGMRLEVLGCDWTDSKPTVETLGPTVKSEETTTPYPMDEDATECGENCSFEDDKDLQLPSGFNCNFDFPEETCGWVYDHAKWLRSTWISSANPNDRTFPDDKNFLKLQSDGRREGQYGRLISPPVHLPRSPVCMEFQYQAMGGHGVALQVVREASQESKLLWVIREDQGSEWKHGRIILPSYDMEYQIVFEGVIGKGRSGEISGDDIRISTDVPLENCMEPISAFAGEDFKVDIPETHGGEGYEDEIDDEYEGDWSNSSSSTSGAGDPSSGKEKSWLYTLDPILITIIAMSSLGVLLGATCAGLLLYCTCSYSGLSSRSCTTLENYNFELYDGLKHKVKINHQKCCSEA

Kd [1]: 5 nM
Kd [2]: 18 nM
Kd [3]: 0.29 nM
B1: Sema E-AP fusion protein (mouse Sema E fused to alkaline phosphatase) (ligand, UniProt Q62181 21-751, looked up)
chain: GSSQPQARVYLTFDELRETKTSEYFSLSHQQLDYRILLMDEDQDRIYVGSKDHILSLNINNISQEPLSVFWPASTIKVEECKMAGKDPTHGCGNFVRVIQTFNRTHLYVCGSGAFSPVCTYLNRGRRSEDQVFMIDSKCESGKGRCSFNPNVNTVSVMINEELFSGMYIDFMGTDAAIFRSLTKRNAVRTDQHNSKWLSEPMFVDAHVIPDGTDPNDAKVYFFFKERLTDNNRSTKQIHSMIARICPNDTGGQRSLVNKWTTFLKARLVCSVTDEDGPETHFDELEDVFLLETDNPRTTLVYGIFTTSSSVFKGSAVCVYHLSDIQTVFNGPFAHKEGPNHQLISYQGRIPYPRPGTCPGGAFTPNMRTTKDFPDDVVTFIRNHPLMYNSIYPIHRRPLIVRIGTDYKYTKIAVDRVNAADGRYHVLFLGTDRGTVQKVVVLPTNSSASGELILEELEVFKNHVPITTMKISSKKQQLYVSSNEGVSQVSLHRCHIYGTACADCCLARDPYCAWDGHSCSRFYPTGKRRSRRQDVRHGNPLTQCRGFNLKAYRNAAEIVQYGVRNNSTFLECAPKSPQASIKWLLQKDKDRRKEVKLNERIIATSQGLLIRSVQDSDQGLYHCIATENSFKQTIAKINFKVLDSEMVAVVTDKWSPWTWAGSVRALPFHPKDILGAFSHSEMQLINQYCKDTRQQQQLGEEPQKMRGDYGKLKALINSRKSRNRRNQLPES
notes: written as in the name; Partially purified conditioned medium; not shown: secreted alkaline phosphatase of vector APtag-4

Kd [1]: 30 nM
Kd [2]: 5 nM
Kd [3]: 0.09 nM
B2: Sema IV-AP fusion protein (human Sema IV fused to alkaline phosphatase) (ligand, UniProt Q13275 19-785, looked up)
chain: SFPTQDHLPATPRVRLSFKELKATGTAHFFNFLLNTTDYRILLKDEDHDRMYVGSKDYVLSLDLHDINREPLIIHWAASPQRIEECVLSGKDVNGECGNFVRLIQPWNRTHLYVCGTGAYNPMCTYVNRGRRAQATPWTQTQAVRGRGSRATDGALRPMPTAPRQDYIFYLEPERLESGKGKCPYDPKLDTASALINEELYAGVYIDFMGTDAAIFRTLGKQTAMRTDQYNSRWLNDPSFIHAELIPDSAERNDDKLYFFFRERSAEAPQSPAVYARIGRICLNDDGGHCCLVNKWSTFLKARLVCSVPGEDGIETHFDELQDVFVQQTQDVRNPVIYAVFTSSGSVFRGSAVCVYSMADIRMVFNGPFAHKEGPNYQWMPFSGKMPYPRPGTCPGGTFTPSMKSTKDYPDEVINFMRSHPLMYQAVYPLQRRPLVVRTGAPYRLTTIAVDQVDAADGRYEVLFLGTDRGTVQKVIVLPKDDQELEELMLEEVEVFKDPAPVKTMTISSKRQQLYVASAVGVTHLSLHRCQAYGAACADCCLARDPYCAWDGQACSRYTASSKRRSRRQDVRHGNPIRQCRGFNSNANKNAVESVQYGVAGSAAFLECQPRSPQATVKWLFQRDPGDRRREIRAEDRFLRTEQGLLLRALQLSDRGLYSCTATENNFKHVVTRVQLHVLGRDAVHAALFPPLSMSAPPPPGAGPPTPPYQELAQLLAQPEVGLIHQYCQGYWRHVPPSPREAPGAPRSPEPQDQKKPRNRRHHPPDT
notes: written as in the name; Partially purified conditioned medium; also called Sema IV/Sema 3F; not shown: secreted alkaline phosphatase in pSecTag-A

binding result [4]: no binding
binding result [5]: no binding
binding result [6]: no binding
B3: AP fusion with Drosophila D-Sema II (ligand, UniProt Q24323 26-724, looked up)
chain: DYENTWNFYYERPCCTGNDQGNNNYGKHGADHVREFNCGKLYYRTFHMNEDRDTLYVGAMDRVFRVNLQNISSSNCNRDVINLEPTRDDVVSCVSKGKSQIFDCKNHVRVIQSMDQGDRLYVCGTNAHNPKDYVIYANLTHLPRSEYVIGVGLGIAKCPYDPLDNSTAIYVENGNPGGLPGLYSGTNAEFTKADTVIFRTDLYNTSAKRLEYKFKRTLKYDSKWLDKPNFVGSFDIGEYVYFFFRETAVEYINCGKAVYSRIARVCKKDVGGKNLLAHNWATYLKARLNCSISGEFPFYFNEIQSVYQLPSDKSRFFATFTTSTNGLIGSAVCSFHINEIQAAFNGKFKEQSSSNSAWLPVLNSRVPEPRPGTCVNDTSNLPDTVLNFIRSHPLMDKAVNHEHNNPVYYKRDLVFTKLVVDKIRIDILNQEYIVYYVGTNLGRIYKIVQYYRNGESLSKLLDIFEVAPNEAIQVMEISQTRKSLYIGTDHRIKQIDLAMCNRRYDNCFRCVRDPYCGWDKEANTCRPYELDLLQDVANETSDICDSSVLKKKIVVTYGQSVHLGCFVKIPEVLKNEQVTWYHHSKDKGRYEIRYSPTKYIETTERGLVVVSVNEADGGRYDCHLGGSLLCSYNITVDAHRCTPPNKSNDYQKIYSDWCHEFEKYKTAMKSWEKKQAQCSTRQNFSSNQHPNEIFRKPNV
notes: also called Drosophila Sema II; not shown: alkaline phosphatase (AP) reporter
